Where “and” joins values, the source holds several entries; their conditions need not be identical. Equal entries are not always repeated. Where two headings read alike, the source gives them in different places.
What was measured:
[1] = target: human CD40-Fc protein (amino acid residue 21-193 of SEQ ID NO: 67 linked to N-terminus of amino acid residue 99-330 of SEQ ID NO.: 24) (human); assay: capture ELISA, biotin human CD40-Fc; mAb at 3.2 ng/mL
[2] = target: Human CD40-his protein (Acro biosystems, Cat # CD0-H5228) (human) (UniProt P25942); assay: SPR, Biacore; human CD40-his
Sequence of Human CD40-his protein (Acro biosystems, Cat # CD0-H5228) (human) (P25942 21-193 limits assumed): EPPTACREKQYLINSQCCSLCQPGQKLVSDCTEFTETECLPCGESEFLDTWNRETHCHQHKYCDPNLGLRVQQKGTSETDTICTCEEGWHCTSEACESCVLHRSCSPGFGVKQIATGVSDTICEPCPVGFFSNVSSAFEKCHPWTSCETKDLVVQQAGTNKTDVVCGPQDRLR

[3] = target: human CD40-Fc protein (amino acid residue 21-193 of SEQ ID NO: 67 linked to N-terminus of amino acid residue 99-330 of SEQ ID NO.: 24) (human); assay: capture ELISA, biotin human CD40-Fc; mAb at 10000 ng/mL
[4] = target: cynomolgus monkey CD40-his protein (Acro biosystems, Cat # CD0-052H6) (cynomolgus monkey) (UniProt G7PG38); assay: SPR, Biacore; cynomolgus CD40-his
Sequence of cynomolgus monkey CD40-his protein (Acro biosystems, Cat # CD0-052H6) (cynomolgus monkey) (G7PG38 entry or part of it limits assumed): as the sequence (P25942 21-193 limits assumed) above, with G43S, H56R, R70Q, W89L, A95S, L101P, S106L, H142R, L172Q counted along it

[5] = target: human CD40-Fc protein (amino acid residue 21-193 of SEQ ID NO: 67 linked to N-terminus of amino acid residue 99-330 of SEQ ID NO.: 24) (human); assay: capture ELISA, biotin human CD40-Fc; mAb at 0.64 ng/mL
[6] = target: Human CD40-his protein (Acro biosystems, Cat # CD0-H5228) (human) (UniProt P25942); assay: SPR, Biacore; antibody captured, human CD40-his flowed
[7] = target: full length human CD40 (uniprot # P25942-1) on the membrane of 293T-CD40 cells (human) (UniProt P25942); assay: flow cytometry on 293T-CD40 cells, PE-labeled secondary antibody, MFI
Sequence of full length human CD40 (uniprot # P25942-1) on the membrane of 293T-CD40 cells (human) (P25942 21-277 limits assumed): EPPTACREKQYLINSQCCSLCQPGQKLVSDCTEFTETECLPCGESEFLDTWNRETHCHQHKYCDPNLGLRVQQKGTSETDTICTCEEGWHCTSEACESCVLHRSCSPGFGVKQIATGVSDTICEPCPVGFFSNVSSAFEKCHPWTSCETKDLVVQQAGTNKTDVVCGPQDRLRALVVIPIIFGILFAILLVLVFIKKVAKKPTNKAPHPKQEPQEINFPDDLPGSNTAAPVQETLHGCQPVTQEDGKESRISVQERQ

[8] = target: Human CD40-his protein (Acro biosystems, Cat # CD0-H5228) (human) (UniProt P25942); assay: SPR, Biacore T200; antibody captured, antigen flowed; 1:1 Langmuir fit
[9] = target: human CD40-Fc protein (amino acid residue 21-193 of SEQ ID NO: 67 linked to N-terminus of amino acid residue 99-330 of SEQ ID NO.: 24) (human); assay: capture ELISA (antibody captured on coated goat anti-human IgG F(ab')2, biotin-labeled human CD40-Fc in solution, streptavidin-HRP, OD(450-630))
[10] = target: full length human CD40 (uniprot # P25942-1) on the membrane of 293T-CD40 cells (human) (UniProt P25942); assay: cell-based or functional assay
[11] = target: human CD40-Fc protein (amino acid residue 21-193 of SEQ ID NO: 67 linked to N-terminus of amino acid residue 99-330 of SEQ ID NO.: 24) (human); assay: capture ELISA; antibody captured, biotin-labeled human CD40-Fc in solution
[12] = target: human CD40-Fc protein (amino acid residue 21-193 of SEQ ID NO: 67 linked to N-terminus of amino acid residue 99-330 of SEQ ID NO.: 24) (human); assay: capture ELISA (antibody captured on coated anti-IgG F(ab')2, biotin-labeled human CD40-Fc in solution, streptavidin-HRP, OD(450-630))
[13] = target: human CD40-Fc protein (amino acid residue 21-193 of SEQ ID NO: 67 linked to N-terminus of amino acid residue 99-330 of SEQ ID NO.: 24) (human); assay: capture ELISA; antibody captured, biotin-labeled human CD40-Fc in solution; remark: listed apart in the source
[14] = target: full length human CD40 (uniprot # P25942-1) on the membrane of 293T-CD40 cells (human) (UniProt P25942); assay: flow cytometry on 293T-CD40 cells, PE-labeled secondary antibody, MFI; remark: listed apart in the source
[15] = target: full length human CD40 (uniprot # P25942-1) on the membrane of 293T-CD40 cells (human) (UniProt P25942); assay: flow cytometry on 293T-CD40 cells
[16] = target: human CD40-Fc protein (amino acid residue 21-193 of SEQ ID NO: 67 linked to N-terminus of amino acid residue 99-330 of SEQ ID NO.: 24) (human); assay: capture ELISA, biotin human CD40-Fc; mAb at 0 ng/mL (blank)
[17] = target: human CD40-Fc protein (amino acid residue 21-193 of SEQ ID NO: 67 linked to N-terminus of amino acid residue 99-330 of SEQ ID NO.: 24) (human); assay: capture ELISA, biotin human CD40-Fc; mAb at 16 ng/mL
[18] = target: human CD40-Fc protein (amino acid residue 21-193 of SEQ ID NO: 67 linked to N-terminus of amino acid residue 99-330 of SEQ ID NO.: 24) (human); assay: ligand blocking ELISA: human CD40-Fc coated, antibody titrated, then biotin-labeled human CD40L-his (blocked ligand), streptavidin-HRP, OD(450-630)
[19] = target: human CD40-Fc protein (amino acid residue 21-193 of SEQ ID NO: 67 linked to N-terminus of amino acid residue 99-330 of SEQ ID NO.: 24) (human); assay: capture ELISA, biotin human CD40-Fc; mAb at 400 ng/mL
[20] = target: full length human CD40 (uniprot # P25942-1) on the membrane of 293T-CD40 cells (human) (UniProt P25942); assay: flow cytometry on 293T-CD40 cells; remark: listed apart in the source
[21] = target: full length human CD40 (uniprot # P25942-1) on the membrane of 293T-CD40 cells (human) (UniProt P25942); assay: flow cytometry on 293T-CD40 cells, PE-labeled secondary antibody, MFI; remark: listed apart in the source
[22] = target: human CD40-Fc protein (amino acid residue 21-193 of SEQ ID NO: 67 linked to N-terminus of amino acid residue 99-330 of SEQ ID NO.: 24) (human); assay: capture ELISA; antibody captured, biotin-labeled human CD40-Fc in solution; remark: listed apart in the source
[23] = target: human CD40-Fc protein (amino acid residue 21-193 of SEQ ID NO: 67 linked to N-terminus of amino acid residue 99-330 of SEQ ID NO.: 24) (human); assay: as above; remark: listed apart in the source
[24] = target: human CD40-Fc protein (amino acid residue 21-193 of SEQ ID NO: 67 linked to N-terminus of amino acid residue 99-330 of SEQ ID NO.: 24) (human); assay: capture ELISA, biotin human CD40-Fc; mAb at 80 ng/mL
[25] = target: human CD40-Fc protein (amino acid residue 21-193 of SEQ ID NO: 67 linked to N-terminus of amino acid residue 99-330 of SEQ ID NO.: 24) (human); assay: capture ELISA, biotin human CD40-Fc; mAb at 2000 ng/mL
[26] = target: human CD40-Fc protein (amino acid residue 21-193 of SEQ ID NO: 67 linked to N-terminus of amino acid residue 99-330 of SEQ ID NO.: 24) (human); assay: capture ELISA (antibody captured on coated anti-IgG F(ab')2, biotin-labeled human CD40-Fc in solution, streptavidin-HRP, OD(450-630)); remark: listed apart in the source

Sequence of human CD40-Fc protein (amino acid residue 21-193 of SEQ ID NO: 67 linked to N-terminus of amino acid residue 99-330 of SEQ ID NO.: 24) (human) (chain, as listed by the source): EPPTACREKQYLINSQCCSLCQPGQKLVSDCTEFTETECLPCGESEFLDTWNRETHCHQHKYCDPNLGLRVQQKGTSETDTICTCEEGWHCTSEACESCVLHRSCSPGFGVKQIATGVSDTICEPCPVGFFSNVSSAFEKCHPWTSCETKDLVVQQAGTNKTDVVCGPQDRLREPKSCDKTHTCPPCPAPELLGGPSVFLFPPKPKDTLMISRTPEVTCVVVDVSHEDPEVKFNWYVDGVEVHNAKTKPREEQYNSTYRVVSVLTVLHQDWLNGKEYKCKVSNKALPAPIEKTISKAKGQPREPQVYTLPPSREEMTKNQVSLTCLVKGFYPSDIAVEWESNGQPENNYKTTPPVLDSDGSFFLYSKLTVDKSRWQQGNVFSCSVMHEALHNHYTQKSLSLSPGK
Sequence of BM1 (Dacetuzumab, Genentech Inc) (antibody) (VH): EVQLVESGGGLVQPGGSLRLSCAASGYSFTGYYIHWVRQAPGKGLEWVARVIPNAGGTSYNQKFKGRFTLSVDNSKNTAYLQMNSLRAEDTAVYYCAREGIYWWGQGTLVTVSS
Sequence of BM1 (Dacetuzumab, Genentech Inc) (antibody) (VL): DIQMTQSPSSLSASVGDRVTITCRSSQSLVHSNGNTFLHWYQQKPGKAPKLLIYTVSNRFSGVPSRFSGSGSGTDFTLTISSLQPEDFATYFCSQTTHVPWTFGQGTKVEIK
Sequence of BM2 (Selicrelumab, Abgenix) (antibody) (VH): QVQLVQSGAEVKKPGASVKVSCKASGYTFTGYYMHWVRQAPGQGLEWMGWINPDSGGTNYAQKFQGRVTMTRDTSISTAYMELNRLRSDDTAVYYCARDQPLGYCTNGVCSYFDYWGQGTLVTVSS
Sequence of BM2 (Selicrelumab, Abgenix) (antibody) (VL): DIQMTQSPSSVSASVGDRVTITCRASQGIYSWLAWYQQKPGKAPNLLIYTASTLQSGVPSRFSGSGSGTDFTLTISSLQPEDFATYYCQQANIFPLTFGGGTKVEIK

absorbance at 450 nm [1] [OD450]	Kd [2] [nM]	absorbance at 450 nm [3] [OD450]	Kd [4] [nM]	absorbance at 450 nm [5] [OD450]	Kd [6] [nM]	Kd [8] [nM]	EC50 (read off the curve) [9] [µg/mL]	Cell-based Reporter assay (EC50, nM) [10]	cell based functional assay (EC50, nM) [10] [nM]	EC50 [11] [µg/mL]	EC50 (read off the curve) [12] [nM]	EC50 [13] [nM]	EC50 (read off the curve) [14] [µg/mL]	EC50 [15]	absorbance at 450 nm [16] [OD450]	absorbance at 450 nm [17] [OD450]	absorbance at 450 nm [19] [OD450]	absorbance at 450 nm [24] [OD450]	absorbance at 450 nm [25] [OD450]	Substance	other results
0.077	14.1	1.99	5.85	0.036	26.3	11.1	0.05	4.39 nM and 4.81 nM	4.16	0.000501	0.4	0.335	0.2	0.975 nM and 0.886 nM	0.028	0.291	1.83	1.02	1.87	BM1 (Dacetuzumab, Genentech Inc) (antibody)	EC50 (read off the curve) [7]: 0.8 nM; IC50 (read off the curve) [18]: 1 µg/mL; EC50 [20]: 1.3 nM; EC50 (read off the curve) [21]: 1 nM; EC50 [22]: 0.33 nM; EC50 [23]: 0.434 nM
0.052	12.2	1.85	6.03	0.028	15.4	5.12	0.1	7.01 nM and 4.9 nM	2.89	0.000886	1	0.716	0.3	2.01 nM and 8.58 nM	0.029	0.178	1.42	0.669	1.63	BM2 (Selicrelumab, Abgenix) (antibody)	EC50 (read off the curve) [26]: 0.1 µg/mL; EC50 [20]: 2.11 nM; EC50 [22]: 0.72 nM; EC50 [23]: 1.25 nM
0.099		0.044		0.096											0.125	0.109	0.05	0.087	0.047	Mouse IgG-NC (mouse control Ab) (antibody)	
0.025		0.023		0.026											0.026	0.03	0.019	0.027	0.018	hIgG (human immunoglobulin (pH4), for intravenous injection, Hualan Biological Engineering Inc.) (antibody)	
